# From patent publication US20180186853A1 (HANMI PHARM, published 2018)
# Non-standard residues stand in square brackets, D forms with d. No end group written: not given here. Aib = CC(C)(N)C(=O)O
# Molecular target: human glucagon receptor (human, UniProt P47871 26-477)
# Assay: cell-based or functional assay
# Chain of human glucagon receptor (P47871 26-477): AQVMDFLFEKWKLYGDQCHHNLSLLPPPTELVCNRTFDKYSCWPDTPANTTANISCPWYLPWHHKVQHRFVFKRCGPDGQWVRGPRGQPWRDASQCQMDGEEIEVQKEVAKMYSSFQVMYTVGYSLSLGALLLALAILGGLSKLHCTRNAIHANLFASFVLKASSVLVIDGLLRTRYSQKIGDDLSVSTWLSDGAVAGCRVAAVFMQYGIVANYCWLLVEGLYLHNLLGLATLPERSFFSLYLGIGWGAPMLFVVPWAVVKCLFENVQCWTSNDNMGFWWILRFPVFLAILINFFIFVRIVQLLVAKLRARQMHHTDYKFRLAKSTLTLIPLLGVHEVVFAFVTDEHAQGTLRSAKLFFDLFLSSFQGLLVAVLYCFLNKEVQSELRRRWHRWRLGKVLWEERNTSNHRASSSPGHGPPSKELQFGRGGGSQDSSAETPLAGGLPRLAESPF
row,"In vitro Activity (Relative Activity of SEQ ID NO: 1, %), from cAMP EC50",Binder
1,< 0.1%,HSQGTFTSDYSKYLDSCEADDFVQWLMNT [glucagon derivative of SEQ ID NO: 6]
2,< 0.1%,YSQGTFTSDYSKYLDSCEADDFVQWLMNT [glucagon derivative of SEQ ID NO: 7]
3,< 0.1%,Y[Aib]QGTFTSDYSKYLDSCDAQDFVQWLINT [glucagon derivative of SEQ ID NO: 8]
